Measurements taken from patent US20080003218A1 (Genentech, published 2008).
Read-outs that look alike come from different tables or passages of the source.

How the values were obtained:
[1] = target: IgE bound to FcεRI on human peripheral blood basophils (human, UniProt P01854 1-546; P12319 26-257); test: cell-based or functional assay
[2] = target: membrane IgE on U266B1 cells (human, UniProt P01854 1-546); test: FACS on membrane IgE+ U266B1 cells
human IgE [3] = target: T1, human IgE (human, UniProt P01854 1-546); test: equilibrium binding (Scatchard), 125I-IgE
human IgE [4] = target: T1, human IgE; test: soluble receptor assay, biotin-IgE binding to coated FcεRI α-chain IgG chimera
human IgE [5] = target: T1, human IgE; test: as above; remark: listed apart in the source

T1 sequence (P01854 whole entry): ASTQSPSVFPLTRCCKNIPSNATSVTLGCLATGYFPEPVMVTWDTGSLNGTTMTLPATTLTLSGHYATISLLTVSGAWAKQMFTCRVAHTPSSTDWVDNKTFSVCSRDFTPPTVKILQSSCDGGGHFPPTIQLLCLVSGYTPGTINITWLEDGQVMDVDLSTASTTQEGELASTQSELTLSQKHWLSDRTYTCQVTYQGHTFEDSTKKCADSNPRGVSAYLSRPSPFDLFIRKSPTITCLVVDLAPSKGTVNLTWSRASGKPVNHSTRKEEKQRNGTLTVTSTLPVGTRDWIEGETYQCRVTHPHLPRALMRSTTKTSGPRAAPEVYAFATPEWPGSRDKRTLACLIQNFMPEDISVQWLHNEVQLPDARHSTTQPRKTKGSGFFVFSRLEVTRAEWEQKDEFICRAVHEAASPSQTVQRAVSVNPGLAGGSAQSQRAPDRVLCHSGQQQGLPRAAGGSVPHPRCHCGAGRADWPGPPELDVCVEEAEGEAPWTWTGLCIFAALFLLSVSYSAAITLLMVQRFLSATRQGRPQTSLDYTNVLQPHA
Chain of membrane IgE on U266B1 cells (P01854 whole entry, one chain of several): as the sequence (P01854 whole entry) above
Chain of IgE bound to FcεRI on human peripheral blood basophils (P01854 whole entry, chain 1 of 2): as the sequence (P01854 whole entry) above
Chain of IgE bound to FcεRI on human peripheral blood basophils (P12319 26-257, chain 2 of 2): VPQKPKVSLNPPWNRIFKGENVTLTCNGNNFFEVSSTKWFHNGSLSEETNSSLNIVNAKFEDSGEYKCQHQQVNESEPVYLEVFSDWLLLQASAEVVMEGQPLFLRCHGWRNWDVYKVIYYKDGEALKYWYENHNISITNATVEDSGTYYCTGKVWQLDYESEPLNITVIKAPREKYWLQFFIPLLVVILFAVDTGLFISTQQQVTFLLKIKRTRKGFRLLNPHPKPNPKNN

B1: murine anti-human IgE monoclonal antibody MaE11 (antibody, V domains shown)
VH: DVQLQESGPGLVKPSQSLSLACSVTGYSITSGYSWNWIRQFPGNKLEWMGSITYDGSSNYNPSLKNRISVTRDTSQNQFFLKLNSATAEDTATYYCARGSHYFGHWHFAVWGAGTTVTVSS
VL: DIQLTQSPASLAVSLGQRATISCKASQSVDYDGDSYMNWYQQKPGQPPILLIYAASYLGSEIPARFSGSGSGTDFTLNIHPVEEEDAATFYCQQSHEDPYTFGAGTKLEIK
notes: Murine IgG1; immunogen U266 IgE; also called murine mAb MaE11
[1]
  PBL histamine release (EC50): > 100 µg/mL
[2]
  EC50: 0.15 µg/mL
Human IgE [3]
  Kd: 30 nM
Human IgE [4]
  IC50: 0.179 µg/mL
  ratio F(ab)-X/F(ab)-2: 0.03 ratio
  ratio F(ab)-X/MaE11: 1 ratio
Human IgE [5]
  IC50: 0.449 µg/mL
  ratio Variant X/IgG1-2: 0.06 ratio
  ratio Variant X/MaE11: 1 ratio
